# Measured values published in ChEMBL document CHEMBL4680222, “Sensitive fluorogenic substrates for sirtuin deacylase inhibitor discovery” (Eur J Med Chem, 2020).
# B1: NAD-dependent protein deacetylase sirtuin-2 (Homo sapiens), Q8IXJ6 (protein)
# chain: MAEPDPSHPLETQAGKVQEAQDSDSDSEGGAAGGEADMDFLRNLFSQTLSLGSQKERLLDELTLEGVARYMQSERCRRVICLVGAGISTSAGIPDFRSPSTGLYDNLEKYHLPYPEAIFEISYFKKHPEPFFALAKELYPGQFKPTICHYFMRLLKDKGLLLRCYTQNIDTLERIAGLEQEDLVEAHGTFYTSHCVSASCRHEYPLSWMKEKIFSEVTPKCEDCQSLVKPDIVFFGESLPARFFSCMQSDFLKVDLLLVMGTSLQVQPFASLISKAPLSTPRLLINKEKAGQSDPFLGMIMGLGGGMDFDSKKAYRDVAWLGECDQGCLALAELLGWKKELEDLVRREHASIDAQSGAGVPNPSTSASPKKSPPPAKDEARTTEREKPQ
# B2: NAD-dependent protein deacetylase sirtuin-3, mitochondrial (Homo sapiens), Q9NTG7 (protein)
# chain: MAFWGWRAAAALRLWGRVVERVEAGGGVGPFQACGCRLVLGGRDDVSAGLRGSHGARGEPLDPARPLQRPPRPEVPRAFRRQPRAAAPSFFFSSIKGGRRSISFSVGASSVVGSGGSSDKGKLSLQDVAELIRARACQRVVVMVGAGISTPSGIPDFRSPGSGLYSNLQQYDLPYPEAIFELPFFFHNPKPFFTLAKELYPGNYKPNVTHYFLRLLHDKGLLLRLYTQNIDGLERVSGIPASKLVEAHGTFASATCTVCQRPFPGEDIRADVMADRVPRCPVCTGVVKPDIVFFGEPLPQRFLLHVVDFPMADLLLILGTSLEVEPFASLTEAVRSSVPRLLINRDLVGPLAWHPRSRDVAQLGDVVHGVESLVELLGWTEEMRDLVQRETGKLDGPDK
# Key:
# [1] = compound: CCCCCCCCCC(=O)NCCCC[C@H](NC(=O)[C@H](CC(=O)O)NC(=O)[C@@H](NC(=O)[C@H](CCC(=O)O)NC(C)=O)[C@@H](C)O)C(=O)Nc1ccc2c(C)cc(=O)oc2c1; assay: (§1) Substrate activity at human N-terminal His-tagged SIRT2 (56 to 356 residues) expressed in Escherichia coli assessed as Vmax measured after 1 hr in presence of NAD+ and trypsin by Michaelis-Menten kinetic model based fluorescence assay
# [2] = compound: CC[C@H](C)[C@H](NC(=O)[C@H](CC(C)C)NC(=O)[C@H](CCCNC(=N)N)NC(C)=O)C(=O)N[C@@H](CCCCNC(C)=O)C(=O)Nc1ccc2c(C)cc(=O)oc2c1; assay: as §1
# [3] = compound: CCCCCCCCCC(=O)NCCCC[C@H](NC(=O)[C@@H](NC(=O)[C@H](CO)NC(=O)[C@H](CO)NC(C)=O)[C@@H](C)CC)C(=O)Nc1ccc2c(C)cc(=O)oc2c1; assay: as §1
# [4] = compound: CC(=O)NCCCC[C@H](NC(=O)[C@H](CC(C)C)NC(=O)[C@H](CCCCN)NC(=O)[C@H](Cc1ccc(O)cc1)NC(C)=O)C(=O)Nc1ccc2c(C)cc(=O)oc2c1; assay: as §1
# [5] = compound: CC(=O)NCCCC[C@H](NC(=O)OCc1ccccc1)C(=O)Nc1ccc2c(C)cc(=O)oc2c1; assay: as §1
# [6] = compound: CCCCCCCCCCCCCC(=O)NCCCC[C@H](NC(=O)OCc1ccccc1)C(=O)Nc1ccc2c(C)cc(=O)oc2c1; assay: as §1
# [7] = compound: CCCCCCCCCC(=O)NCCCC[C@H](NC(=O)[C@H](CC(=O)O)NC(=O)[C@@H](NC(=O)[C@H](CCC(=O)O)NC(C)=O)[C@@H](C)O)C(=O)Nc1ccc2c(C)cc(=O)oc2c1; assay: (§2) Substrate activity at human N-terminal His-tagged SIRT2 (56 to 356 residues) expressed in Escherichia coli assessed as Km measured after 1 hr in presence of NAD+ and trypsin by Michaelis-Menten kinetic model based fluorescence assay
# [8] = compound: CC[C@H](C)[C@H](NC(=O)[C@H](CC(C)C)NC(=O)[C@H](CCCNC(=N)N)NC(C)=O)C(=O)N[C@@H](CCCCNC(C)=O)C(=O)Nc1ccc2c(C)cc(=O)oc2c1; assay: as §2
# [9] = compound: CCCCCCCCCC(=O)NCCCC[C@H](NC(=O)[C@@H](NC(=O)[C@H](CO)NC(=O)[C@H](CO)NC(C)=O)[C@@H](C)CC)C(=O)Nc1ccc2c(C)cc(=O)oc2c1; assay: as §2
# [10] = compound: CC(=O)NCCCC[C@H](NC(=O)[C@H](CC(C)C)NC(=O)[C@H](CCCCN)NC(=O)[C@H](Cc1ccc(O)cc1)NC(C)=O)C(=O)Nc1ccc2c(C)cc(=O)oc2c1; assay: as §2
# [11] = compound: CC(=O)NCCCC[C@H](NC(=O)OCc1ccccc1)C(=O)Nc1ccc2c(C)cc(=O)oc2c1; assay: as §2
# [12] = compound: CCCCCCCCCCCCCC(=O)NCCCC[C@H](NC(=O)OCc1ccccc1)C(=O)Nc1ccc2c(C)cc(=O)oc2c1; assay: as §2
# [13] = compound: CCCCCCCCCC(=O)NCCCC[C@H](NC(=O)[C@H](CC(=O)O)NC(=O)[C@@H](NC(=O)[C@H](CCC(=O)O)NC(C)=O)[C@@H](C)O)C(=O)Nc1ccc2c(C)cc(=O)oc2c1; assay: (§3) Substrate activity at human N-terminal His-tagged SIRT2 (56 to 356 residues) expressed in Escherichia coli assessed as ratio of Kcat to Km measured after 1 hr in presence of NAD+ and trypsin by Michaelis-Menten kinetic model based fluorescence assay
# [14] = compound: CC[C@H](C)[C@H](NC(=O)[C@H](CC(C)C)NC(=O)[C@H](CCCNC(=N)N)NC(C)=O)C(=O)N[C@@H](CCCCNC(C)=O)C(=O)Nc1ccc2c(C)cc(=O)oc2c1; assay: as §3
# [15] = compound: CCCCCCCCCC(=O)NCCCC[C@H](NC(=O)[C@@H](NC(=O)[C@H](CO)NC(=O)[C@H](CO)NC(C)=O)[C@@H](C)CC)C(=O)Nc1ccc2c(C)cc(=O)oc2c1; assay: as §3
# [16] = compound: CC(=O)NCCCC[C@H](NC(=O)[C@H](CC(C)C)NC(=O)[C@H](CCCCN)NC(=O)[C@H](Cc1ccc(O)cc1)NC(C)=O)C(=O)Nc1ccc2c(C)cc(=O)oc2c1; assay: as §3
# [17] = compound: CC(=O)NCCCC[C@H](NC(=O)OCc1ccccc1)C(=O)Nc1ccc2c(C)cc(=O)oc2c1; assay: as §3
# [18] = compound: CCCCCCCCCCCCCC(=O)NCCCC[C@H](NC(=O)OCc1ccccc1)C(=O)Nc1ccc2c(C)cc(=O)oc2c1; assay: as §3
# [19] = compound: CCCCCCCCCC(=O)NCCCC[C@H](NC(=O)[C@H](CC(=O)O)NC(=O)[C@@H](NC(=O)[C@H](CCC(=O)O)NC(C)=O)[C@@H](C)O)C(=O)Nc1ccc2c(C)cc(=O)oc2c1; assay: (§4) Substrate activity at human N-terminal His-tagged SIRT2 (56 to 356 residues) expressed in Escherichia coli assessed as Kcat measured after 1 hr in presence of NAD+ and trypsin by Michaelis-Menten kinetic model based fluorescence assay
# [20] = compound: CC[C@H](C)[C@H](NC(=O)[C@H](CC(C)C)NC(=O)[C@H](CCCNC(=N)N)NC(C)=O)C(=O)N[C@@H](CCCCNC(C)=O)C(=O)Nc1ccc2c(C)cc(=O)oc2c1; assay: as §4
# [21] = compound: CCCCCCCCCC(=O)NCCCC[C@H](NC(=O)[C@@H](NC(=O)[C@H](CO)NC(=O)[C@H](CO)NC(C)=O)[C@@H](C)CC)C(=O)Nc1ccc2c(C)cc(=O)oc2c1; assay: as §4
# [22] = compound: CC(=O)NCCCC[C@H](NC(=O)[C@H](CC(C)C)NC(=O)[C@H](CCCCN)NC(=O)[C@H](Cc1ccc(O)cc1)NC(C)=O)C(=O)Nc1ccc2c(C)cc(=O)oc2c1; assay: as §4
# [23] = compound: CC(=O)NCCCC[C@H](NC(=O)OCc1ccccc1)C(=O)Nc1ccc2c(C)cc(=O)oc2c1; assay: as §4
# [24] = compound: CCCCCCCCCCCCCC(=O)NCCCC[C@H](NC(=O)OCc1ccccc1)C(=O)Nc1ccc2c(C)cc(=O)oc2c1; assay: as §4
# [25] = compound: CC[C@H](C)[C@H](NC(=O)[C@H](CC(C)C)NC(=O)[C@H](CCCNC(=N)N)NC(C)=O)C(=O)N[C@@H](CCCCNC(C)=O)C(=O)Nc1ccc2c(C)cc(=O)oc2c1; assay: (§5) Substrate activity at human N-terminal His-tagged SIRT3 (122 to 391 residues) expressed in Escherichia coli assessed as Kcat measured after 1 hr in presence of NAD+ and trypsin by Michaelis-Menten kinetic model based fluorescence assay
# [26] = compound: CC(=O)NCCCC[C@H](NC(=O)[C@H](CC(C)C)NC(=O)[C@H](CCCCN)NC(=O)[C@H](Cc1ccc(O)cc1)NC(C)=O)C(=O)Nc1ccc2c(C)cc(=O)oc2c1; assay: as §5
# [27] = compound: CC[C@H](C)[C@H](NC(=O)[C@H](CC(C)C)NC(=O)[C@H](CCCNC(=N)N)NC(C)=O)C(=O)N[C@@H](CCCCNC(C)=O)C(=O)Nc1ccc2c(C)cc(=O)oc2c1; assay: (§6) Substrate activity at human N-terminal His-tagged SIRT3 (122 to 391 residues) expressed in Escherichia coli assessed as ratio of Kcat to Km measured after 1 hr in presence of NAD+ and trypsin by Michaelis-Menten kinetic model based fluorescence assay
# [28] = compound: CC(=O)NCCCC[C@H](NC(=O)[C@H](CC(C)C)NC(=O)[C@H](CCCCN)NC(=O)[C@H](Cc1ccc(O)cc1)NC(C)=O)C(=O)Nc1ccc2c(C)cc(=O)oc2c1; assay: as §6
# [29] = compound: CC[C@H](C)[C@H](NC(=O)[C@H](CC(C)C)NC(=O)[C@H](CCCNC(=N)N)NC(C)=O)C(=O)N[C@@H](CCCCNC(C)=O)C(=O)Nc1ccc2c(C)cc(=O)oc2c1; assay: (§7) Substrate activity at human N-terminal His-tagged SIRT3 (122 to 391 residues) expressed in Escherichia coli assessed as Km measured after 1 hr in presence of NAD+ and trypsin by Michaelis-Menten kinetic model based fluorescence assay
# [30] = compound: CC(=O)NCCCC[C@H](NC(=O)[C@H](CC(C)C)NC(=O)[C@H](CCCCN)NC(=O)[C@H](Cc1ccc(O)cc1)NC(C)=O)C(=O)Nc1ccc2c(C)cc(=O)oc2c1; assay: as §7
# [31] = compound: CC[C@H](C)[C@H](NC(=O)[C@H](CC(C)C)NC(=O)[C@H](CCCNC(=N)N)NC(C)=O)C(=O)N[C@@H](CCCCNC(C)=O)C(=O)Nc1ccc2c(C)cc(=O)oc2c1; assay: (§8) Substrate activity at human N-terminal His-tagged SIRT3 (122 to 391 residues) expressed in Escherichia coli assessed as Vmax measured after 1 hr in presence of NAD+ and trypsin by Michaelis-Menten kinetic model based fluorescence assay
# [32] = compound: CC(=O)NCCCC[C@H](NC(=O)[C@H](CC(C)C)NC(=O)[C@H](CCCCN)NC(=O)[C@H](Cc1ccc(O)cc1)NC(C)=O)C(=O)Nc1ccc2c(C)cc(=O)oc2c1; assay: as §8
protein,measurement,setting,value
B1,Vmax,[1],61.9 nM/min
same,Vmax,[2],36.1 nM/min
same,Vmax,[3],25.5 nM/min
same,Vmax,[4],81.9 nM/min
same,Vmax,[5],26.3 nM/min
same,Vmax,[6],1.63 nM/min
same,Km,[7],16.5 µM
same,Km,[8],41.6 µM
same,Km,[9],1.2 µM
same,Km,[10],106 µM
same,Km,[11],274 µM
same,Km,[12],1.7 µM
same,kcat/Km,[13],1250 M⁻¹ s⁻¹
same,kcat/Km,[14],289 M⁻¹ s⁻¹
same,kcat/Km,[15],3530 M⁻¹ s⁻¹
same,kcat/Km,[16],129 M⁻¹ s⁻¹
same,kcat/Km,[17],3.5 M⁻¹ s⁻¹
same,kcat/Km,[18],3.2 M⁻¹ s⁻¹
same,kcat,[19],20.6 10^-3/s
same,kcat,[20],12 10^-3/s
same,kcat,[21],4.25 10^-3/s
same,kcat,[22],13.6 10^-3/s
same,kcat,[23],0.98 10^-3/s
same,kcat,[24],0.054 10^-3/s
B2,kcat,[25],5.58 10^-3/s
same,kcat,[26],2.44 10^-3/s
same,kcat/Km,[27],850 M⁻¹ s⁻¹
same,kcat/Km,[28],26.1 M⁻¹ s⁻¹
same,Km,[29],6.52 µM
same,Km,[30],63.4 µM
same,Vmax,[31],33.5 nM/min
same,Vmax,[32],14.6 nM/min
